B1: Protein nutcracker (Drosophila melanogaster (Fruit fly)), Q8SX86 (parent)
chain: MSDTKSEIEGFIAIPTTSGEQQQQQPQQQQNEQQVVGTKDIKAPDQVGKKQRPRLIQEKSTQETNPLILEHATLEWVPQHMDKLLNQYQECRKMPAAEWLHLLTYLVALECGFVEEETFAQKRHLIQPVPSFSSFHAQNVRILSEQPARYEVCFNDTVYIMRLRTLLDKHAPEETSLVAALQCRLMAVSLGDQLMITLSPAPPSKEPGYSVSLSIGRYVLNIQAKNKPIYHRFRKLDELSYQLKQHLFQPMRSQQLMQMEMKLQPSLLGLPDELYFEIFRYLDKSQLNVVARVNRHLHFYSKEVERKRLKGGRS
partner: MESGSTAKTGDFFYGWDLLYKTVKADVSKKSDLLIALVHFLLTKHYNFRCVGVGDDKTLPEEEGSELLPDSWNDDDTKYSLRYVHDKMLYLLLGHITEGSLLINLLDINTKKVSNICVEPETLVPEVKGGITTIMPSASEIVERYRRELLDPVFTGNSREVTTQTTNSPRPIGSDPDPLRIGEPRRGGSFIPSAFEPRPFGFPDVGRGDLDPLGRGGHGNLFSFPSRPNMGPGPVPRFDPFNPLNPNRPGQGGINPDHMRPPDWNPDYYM

Variants of: B1
Conditions: with psmf1_drome PI31, Q9V637

effect of a mutation on the interaction	Variant
decreasing interaction	MSDTKSEIEGFIAIPTTSGEQQQQQPQQQQNEQQVVGTKDIKAPDQVGKKQRPRLIQEKSTQETNPLILEHATLEWVPQHMDKLLNQYQECRKMPAAEWLHLLTYLVALECGFVEEETFAQKRHLIQPVPSFSSFHAQNVRILSEQPARYEVCFNDTVYIMRLRTLLDKHAPEETSLVAALQCRLMAESLGDQLMITLSPAPPSKEPGYSVSLSIGRYVLNIQAKNKPIYHRFRKLDELSYQLKQHLFQPMRSQQLMQMEMKLQPSLLGLPDELYFEIFRYLDKSQLNVVARVNRHLHFYSKEVERKRLKGGRS [V188E]

From IntAct's records for PubMed 21529711
